Data reported in PMC2911679 (Biochemical Journal, 2010).

Key:
[1] = target: biotinylated Impβ1 (GST-fusion protein, biotinylated with sulfo-NHS-biotin) (UniProt P70168 1-876, biotin (sulfo-NHS-biotin reagent; sites not stated)); test: AlphaScreen or HTRF
[2] = target: biotin-labelled calmodulin (CaM) (UniProt P0DP23 1-149, biotin (site not stated)); test: AlphaScreen or HTRF

biotinylated Impβ1 (GST-fusion protein, biotinylated with sulfo-NHS-biotin), sequence (P70168 whole entry, the tested form may be a part): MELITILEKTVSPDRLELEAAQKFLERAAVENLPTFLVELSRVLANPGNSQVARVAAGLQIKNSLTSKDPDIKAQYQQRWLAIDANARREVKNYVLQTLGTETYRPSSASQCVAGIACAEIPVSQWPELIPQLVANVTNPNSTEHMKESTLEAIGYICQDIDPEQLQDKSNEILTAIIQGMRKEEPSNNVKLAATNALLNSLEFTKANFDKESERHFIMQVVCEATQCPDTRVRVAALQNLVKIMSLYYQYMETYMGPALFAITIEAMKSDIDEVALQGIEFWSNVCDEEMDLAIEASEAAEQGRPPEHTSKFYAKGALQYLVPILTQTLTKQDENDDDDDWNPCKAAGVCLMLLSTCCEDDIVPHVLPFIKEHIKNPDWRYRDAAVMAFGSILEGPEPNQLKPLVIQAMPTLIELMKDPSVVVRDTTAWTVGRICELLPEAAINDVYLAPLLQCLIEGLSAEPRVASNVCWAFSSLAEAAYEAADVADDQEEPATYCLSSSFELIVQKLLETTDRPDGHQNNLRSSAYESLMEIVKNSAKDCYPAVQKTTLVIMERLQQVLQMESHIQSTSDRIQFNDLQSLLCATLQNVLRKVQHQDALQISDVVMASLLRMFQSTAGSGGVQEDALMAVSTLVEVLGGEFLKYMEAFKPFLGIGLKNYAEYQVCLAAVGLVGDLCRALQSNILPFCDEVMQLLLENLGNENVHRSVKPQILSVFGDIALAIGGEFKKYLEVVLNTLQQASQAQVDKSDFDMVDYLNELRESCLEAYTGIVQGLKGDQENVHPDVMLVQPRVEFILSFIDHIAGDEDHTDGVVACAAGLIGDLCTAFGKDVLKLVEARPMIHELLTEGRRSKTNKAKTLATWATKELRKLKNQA

| Binder | Kd [1] | Kd [2] |
| --- | --- | --- |
| His6-tagged GFP–SRY-HMG R76P (SRY residues 55–141) (domain or fragment) not shown | 890 pM |  |
| His6-tagged GFP–SRY-HMG Y127C (SRY residues 55–141) (domain or fragment) not shown | 3600 pM | 620 pM |
| His6-tagged GFP–SRY-HMG M64T (SRY residues 55–141) (domain or fragment) not shown | 1420 pM |  |
| His6-tagged GFP–SRY-HMG F67V (SRY residues 55–141) (domain or fragment) not shown | 1090 pM |  |
| His6-tagged GFP–SRY-HMG, wild type (SRY residues 55–141) (domain or fragment) not shown | 940 pM | 430 pM |
